Results from patent publication US20220265842A1, “ANTI-CD40 ANTIBODY DRUG CONJUGATES” (priority 2017, published 2022).

Columns and labels:
[1] = target: human CD40 on LPS-stimulated human monocyte-derived dendritic cells (human, UniProt P25942 21-277); test: cell-based or functional assay
[2] = target: human CD40 Transcript 1 (Myc-DDK-tagged) on HEK293 GRE reporter cells (human, UniProt P25942 21-277); test: cell-based or functional assay
human CD40 Transcript 1 (Myc-DDK-tagged) on HEK293 GRE reporter cells, sequence (P25942 21-277): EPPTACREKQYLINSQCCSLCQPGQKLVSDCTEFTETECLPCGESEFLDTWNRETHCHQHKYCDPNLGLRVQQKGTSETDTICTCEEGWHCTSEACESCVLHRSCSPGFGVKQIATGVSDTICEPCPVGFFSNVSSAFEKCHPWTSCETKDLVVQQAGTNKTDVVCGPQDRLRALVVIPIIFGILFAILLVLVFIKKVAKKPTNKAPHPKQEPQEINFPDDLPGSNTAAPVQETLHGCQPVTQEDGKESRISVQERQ

human CD40 on LPS-stimulated human monocyte-derived dendritic cells, sequence (P25942 21-277 limits assumed): as the sequence (P25942 21-277) above

Binder | IL-6 release IC50 [1] | Max Inhibition (%) [1] | hCD40 GRE (% max) [2] | hCD40 GRE EC50 [2]
Example 12-hydrolyzed (human), n=4 (antibody, human IgG1, kappa, L234A L235A, V domains shown, glucocorticoid drug-linker of Precursor Example 12 (maleimide, thiosuccinimide ring hydrolyzed) on cysteine thiols of reduced disulfides; n=4 per antibody; positions not given) VH: EVQLVESGGGLVKPGGSLRLSCAASGFTFSDYGMNWVRQAPGKGLEWIAYISSGRGNIYYADTVKGRFTISRDNAKNSLYLQMNSLRAEDTAVYYCARSWGYFDVWGQGTTVTVSS VL: DIVMTQSPDSLAVSLGERATINCKSSQSLLNRGNQKNYLTWFQQKPGQPPKLLIYWASTRESGVPDRFSGSGSGTDFTLTISSLQAEDVAVYYCQNDYTYPLTFGQGTKLEIKR | 0.04 µg/mL | 99.5% | 163% | 0.19 µg/mL
Example 4-conjugated (human), n=4 (antibody, human IgG1, kappa, L234A L235A, DAR 4, V domains shown, glucocorticoid drug-linker of Precursor Example 4 (bromoacetamide) on cysteine thiols of reduced interchain disulfides; n=4 per antibody; positions not given) VH: EVQLVESGGGLVKPGGSLRLSCAASGFTFSDYGMNWVRQAPGKGLEWIAYISSGRGNIYYADTVKGRFTISRDNAKNSLYLQMNSLRAEDTAVYYCARSWGYFDVWGQGTTVTVSS VL: DIVMTQSPDSLAVSLGERATINCKSSQSLLNRGNQKNYLTWFQQKPGQPPKLLIYWASTRESGVPDRFSGSGSGTDFTLTISSLQAEDVAVYYCQNDYTYPLTFGQGTKLEIKR |  |  | 88% | 6.57 µg/mL
Example 13-hydrolyzed (human), n=4 (antibody, human IgG1, kappa, L234A L235A, V domains shown, glucocorticoid drug-linker of Precursor Example 13 (maleimide, thiosuccinimide ring hydrolyzed) on cysteine thiols of reduced disulfides; n=4 per antibody; positions not given) VH: EVQLVESGGGLVKPGGSLRLSCAASGFTFSDYGMNWVRQAPGKGLEWIAYISSGRGNIYYADTVKGRFTISRDNAKNSLYLQMNSLRAEDTAVYYCARSWGYFDVWGQGTTVTVSS VL: DIVMTQSPDSLAVSLGERATINCKSSQSLLNRGNQKNYLTWFQQKPGQPPKLLIYWASTRESGVPDRFSGSGSGTDFTLTISSLQAEDVAVYYCQNDYTYPLTFGQGTKLEIKR | 0.14 µg/mL | 83.3% | 67% | 0.29 µg/mL
Human anti-CD40 antibody Ab102 (antibody, human IgG1, kappa, L234A L235A, V domains shown) VH: EVQLVESGGGLVKPGGSLRLSCAASGFTFSDYGMNWVRQAPGKGLEWIAYISSGRGNIYYADTVKGRFTISRDNAKNSLYLQMNSLRAEDTAVYYCARSWGYFDVWGQGTTVTVSS VL: DIVMTQSPDSLAVSLGERATINCKSSQSLLNRGNQKNYLTWFQQKPGQPPKLLIYWASTRESGVPDRFSGSGSGTDFTLTISSLQAEDVAVYYCQNDYTYPLTFGQGTKLEIKR | 0.18 µg/mL | 44.5% |  | 
Example 28-conjugated (human), n=2 (antibody, human IgG1, kappa, L234A L235A, DAR 2, V domains shown, glucocorticoid drug-linker of Precursor Example 28 (bromoacetamide) on cysteine thiols of reduced interchain disulfides; n=2 per antibody; positions not given) VH: EVQLVESGGGLVKPGGSLRLSCAASGFTFSDYGMNWVRQAPGKGLEWIAYISSGRGNIYYADTVKGRFTISRDNAKNSLYLQMNSLRAEDTAVYYCARSWGYFDVWGQGTTVTVSS VL: DIVMTQSPDSLAVSLGERATINCKSSQSLLNRGNQKNYLTWFQQKPGQPPKLLIYWASTRESGVPDRFSGSGSGTDFTLTISSLQAEDVAVYYCQNDYTYPLTFGQGTKLEIKR | 0.03 µg/mL | 81.8% | 90% | 16.5 µg/mL
Example 28-conjugated (human), n=4 (antibody, human IgG1, kappa, L234A L235A, DAR 4, V domains shown, glucocorticoid drug-linker of Precursor Example 28 (bromoacetamide) on cysteine thiols of reduced interchain disulfides; n=4 per antibody; positions not given) VH: EVQLVESGGGLVKPGGSLRLSCAASGFTFSDYGMNWVRQAPGKGLEWIAYISSGRGNIYYADTVKGRFTISRDNAKNSLYLQMNSLRAEDTAVYYCARSWGYFDVWGQGTTVTVSS VL: DIVMTQSPDSLAVSLGERATINCKSSQSLLNRGNQKNYLTWFQQKPGQPPKLLIYWASTRESGVPDRFSGSGSGTDFTLTISSLQAEDVAVYYCQNDYTYPLTFGQGTKLEIKR | 0.05 µg/mL | 87.6% | 77% | 0.53 µg/mL
